Measured values reported in patent publication US12344648B2.

Assays:
[1] = molecular target: IL-15 receptors on CD8+ T cells and NK cells of cynomolgus monkey whole blood (cynomolgus monkey)
[2] = molecular target: IL-15 receptors on CD8+ T cells and NK cells of cynomolgus monkey whole blood (cynomolgus monkey); remark: listed apart in the source

Substance | fold change of EC50 for pSTAT5 induction against native IL-15, CD8+ T cells, cynomolgus monkey whole blood [1] | fold change of EC50 for pSTAT5 induction against native IL-15, NK cells, cynomolgus monkey whole blood [1] | EC50 of STAT5 signaling (pSTAT5), CD8+ T cells, cynomolgus monkey whole blood [2] | EC50 of STAT5 signaling (pSTAT5), NK cells, cynomolgus monkey whole blood [2]
IL-15_L26[AzK_PEG30] (ligand) | 164 fold | 115 fold | 1040 ng/ml | 219 ng/ml
IL-15_E54[AzK_PEG30] (ligand) |  |  | 9.2 ng/ml | 1.8 ng/ml
native IL-15 (from UniProt P40933) (ligand) |  |  | 6.3 ng/ml | 1.9 ng/ml
IL-15_N78[AzK_PEG30] (ligand) |  |  | 15.7 ng/ml | 3.9 ng/ml
